B1: Flag-WHRN (wild type) [mouse] / Myc-USH2A (usherin, aa 4819-5193) [mouse] (parent complex)
chain 1: MNAQLDGLSVSSSSTGSLGSAAAAAGGGGGAGLRLLSANVRQLHQALTALLSEPEREQFTHCLNAYHARRNVFDLVRTLRVLLDSPVKRRLLPMLRLVIPRSDQLLFDQYTAEGLYLPATTPYRQPAWAAPDGAGPGEVRLVSLRRAKAHEGLGFSIRGGSEHGVGIYVSLVEPGSLAEKEGLRVGDQILRVNDKSLARVTHAEAVKALKGSKKLVLSVYSAGRIPGGYVTNHIYTWVDPQGRSTSPPSSLPQPHGSTLRQREDDRRSTLHLLQSGDEKKVNLVLGDGRSLGLTIRGGAEYGLGIYITGVDPGSEAESSGLKVGDQILEVNGRSFLNILHDEAVKLLKSSRHLILTVKDVGRLPHARTTVDQTKWIASSRIGESVANSAGFPGDHTEEGTSKPGFYKGPAGSQVTLSSLGNQTRALLDDQARHLLTEQERATMMYYLAQYRGGTISVEAMVMALFELLNTHAKFSLLSEVRSIISPQDLDRFDHLVLRREIESMKARQPPGPGVGDTYSMVSYSDTGSSTGSHGTSTTVSSARERLLWLIDLMENTLDLEGTGETTQGSTNALPDVSVDDVKSPSEDLPGIKPPPPPPPLAQGHDRLLGQPRKPGREDPAPLSSAAHSGIVFSAPRNRSPPPGTAPTPGPSSAQDSPSSPIYASISHANPSSRKPLDTHLALVNQHPIGPFPRVQSPPHLKSPPAETPGAGACLPPPSPSEHPDAVGANQHFVLVEVHRPDSEPDVNEVRALPQTRTASTLSQLSDSGQTLSEDSGVDAGETEASTSGRGRQTASAKNKNGKEQPRTERTAEGANKPPGLLEPTSTLVRVRKSAATLGIAIEGGANTRQPLPRIVTIQRGGSAHNCGQLKVGHVILEVNGQTLRGKEHKEAARIIAEAFKTKERDYIDFLVTEFNVML
chain 2: PPSGLSPPQVQTLGSRMASVHWTPPLLPNGVIHSYELQLQRACPPDSAPRCPPSHTERKYWGPGHRASLAGLQPNTAYGVQVVAYNEAGSTASGWTNFSTKKEMPQYQALFSVDSNASMVWVDWSGTFLLNGHLKEYVVTDGGRRVYSGLDTTLYIPRMVDKIFFFQVTCTTDIGSVKTPLVQYDAATGSGLVLTTPGEKKGAGTKSTEFYSELWFIMVMAVVGLILLAIFLSLILQRKIHKEPCIRERPPLVPLQKRMTPLSVYPPGETHVGLADTRLPRSGTPMSIRSSQSVSVLRIPSQSQLSHAYSQSSLHRSVSQLMDMADKKVVTEDSLWETIMGHSSGLYVDEEELMNAIKGFSSVTKEHTAFTDTHL

This assay covers variants of B1. In words: co-immunoprecipitation (band intensity quantified); HEK293 cells; n = 3; parent: 1; read off a plot.
Consider chain 1 S85E, for which the ratio to parent is approximately 1.
Under chain 1 S37E stands approximately 1; under chain 1 S246E, approximately 1; under chain 1 S384E, approximately 1.
Regarding chain 1 S156E, the ratio to parent was approximately 1.
